Patent US20230242675A1 (SHANGHAI EPIMAB BIOTHERAPEUTICS, published 2023)
Substitutions are numbered along the chain they refer to. In names and notes the source's numbering stands.

B1: HuEM0005-86-10 (antibody, human IgG1, V domains shown)
VH: EVQLVQSGAEVKKPGASVKVSCKASGYTFTTYGINWVRQAPGQGLEWMGYIYIGNGYTEYNEKFKGRVTLTSDTSTSTAYMELSSLRSDDTAVYYCARDLMVIAPKTMDYWGQGTTVTVSS
VL: DIQMTQSPSSVSASVGDRVTITCKASQDVGTAVAWYQQKPGKSPKLLIYWASTRHTGVPDRFTGSGSGTDFTLTISSLQPEDFATYFCQQYSSYPYTFGGGTKVEIK
B2: HuEM0005-86-8 (antibody, human IgG1, V domains shown)
VH: B1 VH with L70M, S72T
VL: B1 VL
B3: HuEM0005-86-12 (antibody, human IgG1, V domains shown)
VH: B1 VH with M48I, R67K, V68A
VL: B1 VL
B4: HuEM0005-86-9 (antibody, human IgG1, V domains shown)
VH: B1 VH with L70M
VL: B1 VL
B5: HuEM0005-86-7 (antibody, human IgG1, V domains shown)
VH: B1 VH with M48I, T74P, S77R
VL: B1 VL with S43A, F87Y
B6: HuEM0005-86-11 (antibody, human IgG1, V domains shown)
VH: B1 VH with M48I
VL: B1 VL
B7: HuEM0005-87-18 (antibody, human IgG1, V domains shown)
VH: EVQLVQSGAEVKKPGASVKVSCKASGYTFTDYYINWVRQAPGQGLEWIGETIPNTGGTTYNQKFKARVTLTVDKSTSTVYMELSSLRSEDTAVYYCARYQSGSPFAYWGQGTTVTVSS
VL: EIVMTQSPATLSVSPGERATLSCKASQNVGTAVAWYQQKPGQAPRLLIYSASNRYTGVPDRFTGSGSGTEFTLTISSLQSEDFAVYYCQQHYSTPYTFGGGTKLEIK
B8: HuEM0005-87-15 (antibody, human IgG1, V domains shown)
VH: B7 VH with T28S, R38K, R67K, V68A, V72R, V79A, S84K
VL: B7 VL with D60A, T63S
B9: HuEM0005-87-16 (antibody, human IgG1, V domains shown)
VH: B7 VH with I48M, L70M, K74T
VL: B7 VL
B10: HuEM0005-87-17 (antibody, human IgG1, V domains shown)
VH: B7 VH with I48M, K74T
VL: B7 VL
B11: HuEM0005-87-14 (antibody, human IgG1, V domains shown)
VH: B7 VH with T28S, R67K, V68A, V79A
VL: B7 VL with D60A, T63S
B12: HuEM0005-87-13 (antibody, human IgG1, V domains shown)
VH: B7 VH
VL: B7 VL with D60A, T63S
B13: HuEM0005-90-13 (antibody, human IgG1, V domains shown)
VH: EVQLVQSGAEVKKPGASVKVSCKASGYTFTSHSINWVRQATGQGLEWMGYMYIGNGYTEYNEKFKGRVTLTSNTSISTAYMELSSLRSEDTAVYYCAKITPVVAPYVMDYWGQGTSVTVSS
VL: B1 VL with S10F, V11L, S43A, D70E, F87Y, G100Q, V104L
B14: HuEM0005-90-18 (antibody, human IgG1, V domains shown)
VH: B13 VH with M48I, V68A
VL: B1 VL with Q3V, S10F, V11L, S43A, F87Y, G100Q, V104L
B15: HuEM0005-90-14 (antibody, human IgG1, V domains shown)
VH: B13 VH with M48I, V68A
VL: B1 VL with S10F, V11L, S43A, D70E, F87Y, G100Q, V104L
B16: HuEM0005-90-15 (antibody, human IgG1, V domains shown)
VH: B13 VH with A24T, L70M
VL: B1 VL with S10F, V11L, S43A, D70E, F87Y, G100Q, V104L
B17: HuEM0005-90-17 (antibody, human IgG1, V domains shown)
VH: B13 VH
VL: B1 VL with Q3V, S10F, V11L, S43A, F87Y, G100Q, V104L
B18: HuEM0005-90-16 (antibody, human IgG1, V domains shown)
VH: B13 VH with A24T, M48I, V68A
VL: B1 VL with S10F, V11L, S43A, D70E, F87Y, G100Q, V104L
B19: HuEM0005-87-20 (antibody, human IgG1, V domains shown)
VH: B7 VH with T28S, R38K, R67K, V68A, V72R, V79A, S84K
VL: B7 VL
B20: HuEM0005-87-24 (antibody, human IgG1, V domains shown)
VH: B7 VH with T28S, R67K, V68A, V79A
VL: B7 VL with E1D, E70D
B21: HuEM0005-87-19 (antibody, human IgG1, V domains shown)
VH: B7 VH with T28S, R67K, V68A, V79A
VL: B7 VL
B22: HuEM0005-87-22 (antibody, human IgG1, V domains shown)
VH: B7 VH with I48M, K74T
VL: B7 VL with E1D, E70D
B23: HuEM0005-87-21 (antibody, human IgG1, V domains shown)
VH: B7 VH with I48M, L70M, K74T
VL: B7 VL with E1D, E70D
B24: HuEM0005-87-23 (antibody, human IgG1, V domains shown)
VH: B7 VH
VL: B7 VL with E1D, E70D
B25: HuEM0005-90-20 (antibody, human IgG1, V domains shown)
VH: B13 VH with A24T, M48I, V68A
VL: B1 VL with Q3V, S10F, V11L, S43A, F87Y, G100Q, V104L
B26: EM0005-90c(G55A) (antibody, human IgG1, V domains shown)
VH: QVQLKQSGAELVRPGSSVKMSCKTSGYTFTSHSINWVKQRPGQGLEWIGYMYIGNAYTEYNEKFKGKATLTSDTSSTTAYMQLSSLTSEDSAIYFCAKITPVVAPYVMDYWGQGTSVTVSS
VL: DIVMTQTHKFMSTSVGDRVSITCKASQDVGTAVAWYQQKPGQSPKLLIYWASTRHTGVPDRFTGSGSGTDFTLTISNVQSEDLADYFCQQYSSYPYTFGGGTKLELK
notes: Chimeric antibody with G55A in CDR-H2; also called HuEM0005-90C-G55A

These binders were tested against T1, human PD-L1/His fusion protein (human, UniProt Q9NZQ7 19-239) (assay: BLI off-rate; test group 2).
T1 sequence (Q9NZQ7 19-239 limits assumed): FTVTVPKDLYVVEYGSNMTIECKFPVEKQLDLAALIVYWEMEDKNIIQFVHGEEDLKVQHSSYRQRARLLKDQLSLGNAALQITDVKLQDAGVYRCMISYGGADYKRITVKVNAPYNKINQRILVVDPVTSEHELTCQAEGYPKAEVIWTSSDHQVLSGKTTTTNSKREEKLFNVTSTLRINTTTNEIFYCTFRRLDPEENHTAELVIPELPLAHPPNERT
Experimental: (§1) All 15 antibodies in Table 13 were assayed for and ranked by dissociation rate constant (koff). […] Briefly, antibodies were characterized for affinities and binding kinetics by Octet®RED96 biolayer interferometry (Pall ForteBio LLC). Antibodies were captured by Anti-hIgG Fc Capture (AHC) Biosensors (Pall) at a concentration of 100 nM for 30 seconds. Sensors were then dipped into running buffer (1×pH 7.2 PBS, 0.05% Tween 20, 0.1% BSA) for 60 seconds to check the baseline. Binding was measured by dipping sensors into a single concentration of recombinant human PD-L1/His fusion protein (Novoprotein). Dissociation was followed by dipping sensors into running buffer for 1200 seconds. The association and dissociation curves were fitted to a 1:1 Langmuir binding model using ForteBio Data Analysis software (Pall). […] The off-rate ratio serves as a data normalization. Accordingly, in each test group, the off-rate ratios of the humanized antibodies can be compared with that of the chimeric antibody, and the off-rate ratios of each of the humanized antibodies can be compared to one another within all test groups.

| Binder | Off-Rate Ratio to that of EM0005-86c |
| --- | --- |
| B1 | 88% |
| B2 | 87% |
| B3 | 84% |
| B4 | 89% |
| B5 | 73% |
| B6 | 73% |

Each binder was assayed against T1, human PD-L1/His fusion protein (assay: BLI Octet RED96, antibody on AHC sensor, single conc. PD-L1/His; test group 2).
Experimental: as §1

| Binder | koff |
| --- | --- |
| B1 | 0.00157 s⁻¹ |
| B2 | 0.00155 s⁻¹ |
| B3 | 0.0015 s⁻¹ |
| B4 | 0.0016 s⁻¹ |
| B5 | 0.00131 s⁻¹ |
| B6 | 0.00131 s⁻¹ |

The binders below were run against T1, human PD-L1/His fusion protein (assay: BLI off-rate; test group 3).
Experimental: (§2) Briefly, antibodies were characterized for affinities and binding kinetics by Octet®RED96 biolayer interferometry (Pall ForteBio LLC). Antibodies were captured by Anti-hIgG Fc Capture (AHC) Biosensors (Pall) at a concentration of 100 nM for 30 seconds. Sensors were then dipped into running buffer (1×pH 7.2 PBS, 0.05% Tween 20, 0.1% BSA) for 60 seconds to check baseline. Binding was measured by dipping sensors into a single concentration of recombinant human PD-L1/His fusion protein (Novoprotein). Dissociation was followed by dipping sensors into running buffer for 1200 seconds. The association and dissociation curves were fitted to a 1:1 Langmuir binding model using ForteBio Data Analysis software (Pall). […] The off-rate ratio serves as a data normalization. Accordingly, in each test group, the off-rate ratios of the humanized antibodies can be compared with that of the chimeric antibody, and the off-rate ratios of each of the humanized antibodies can be compared to one another within all test groups.

| Binder | Off-Rate Ratio to that of EM0005-87c | Off-Rate Ratio to that of EM0005-90c |
| --- | --- | --- |
| B7 | 75% | – |
| B8 | 96% | – |
| B9 | 69% | – |
| B10 | 66% | – |
| B11 | 80% | – |
| B12 | 74% | – |
| B13 | – | 115% |
| B14 | – | 87% |
| B15 | – | 98% |
| B16 | – | 131% |
| B17 | – | 106% |
| B18 | – | 101% |

The binders below were run against T1, human PD-L1/His fusion protein (assay: BLI Octet RED96, antibody on AHC sensor, single conc. PD-L1/His; test group 4).
Experimental: as §2

| Binder | koff |
| --- | --- |
| B19 | 0.000801 s⁻¹ |
| B20 | 0.00101 s⁻¹ |
| B21 | 0.000782 s⁻¹ |
| B22 | 0.000738 s⁻¹ |
| B23 | 0.000522 s⁻¹ |
| B24 | 0.000905 s⁻¹ |
| B25 | 0.00249 s⁻¹ |
| B26 | 0.00255 s⁻¹ |

What follows are binders tested against T1, human PD-L1/His fusion protein (assay: BLI Octet RED96, antibody on AHC sensor, single conc. PD-L1/His; test group 3).
Experimental: as §2

| Binder | koff |
| --- | --- |
| B7 | 0.00101 s⁻¹ |
| B8 | 0.00129 s⁻¹ |
| B9 | 0.000932 s⁻¹ |
| B10 | 0.000888 s⁻¹ |
| B11 | 0.00108 s⁻¹ |
| B12 | 0.001 s⁻¹ |
| B13 | 0.000439 s⁻¹ |
| B14 | 0.000334 s⁻¹ |
| B15 | 0.000376 s⁻¹ |
| B16 | 0.000499 s⁻¹ |
| B17 | 0.000405 s⁻¹ |
| B18 | 0.000387 s⁻¹ |

The binders below were run against T1, human PD-L1/His fusion protein (assay: BLI off-rate; test group 4).
Experimental: as §2

| Binder | Off-Rate Ratio to that of EM0005-87c | Off-Rate Ratio to that of EM0005-90c |
| --- | --- | --- |
| B19 | 89% | – |
| B20 | 113% | – |
| B21 | 87% | – |
| B22 | 82% | – |
| B23 | 58% | – |
| B24 | 101% | – |
| B25 | – | 111% |
| B26 | – | 113% |
